Test results from the supplement of paper PMC9170038.

System: K4 kissing-loop RNA reporter
Test: apparent KD of K4 kissing-loop reporter; higher = weaker reporter binding
Conditions: Eterna round: R107; input ligand: theophylline 20 uM
Method: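 RNA-MaP round R107: designed RNA switches with theophylline, tryptophan, arginine or FMN aptamers are transcribed on-chip within common flanks. They are titrated with a labelled K4 kissing-loop RNA reporter in RNA-MaP buffer (100 mM Tris pH 7.5, 80 mM KCl, 4 mM MgCl2), without ligand or with the indicated ligand. Median apparent KD per design.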
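Also: bound reporter read as fluorescence of individual clusters on recovered sequencing chips by microscopy, with normalized cluster intensities fitted with a binding model.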

Sequence | apparent KD of K4 kissing-loop reporter [nM]
UAAUGCAUGACGGCCGCCACUAGUACUGGAGUGAUGUUGUGGUACGGCGGCAGUAUAGGGUGGACUAGGACCGGGUCAUGCAUAU [KL-XTryp-B11 #analogue] | 547
AUUUUUUUGUCAGGAUAUUAGUGUUGGUUUGGUUUGUUAGUGAUGUUGAUAUUUGUUUUAUGUAUUUAAGAAGGGAUUUAGCUGU [ppdemullin] | 427
UGUCAUUGGUCGGCCGCCACUUCGUGUGGAGUGAUGUUUUGUAGAUUGUGUUGAAAGGUAUGGUGAAGGACCGGGACCGAUGACU [FiskerMod 21 - Jieux - Same State - Tryptophan B] | 242
AGAUUCGACACGGCCGCCACUUCCGGUGGCUGGUGUCAUGGUGCGCGUGAGUGAUGUUUAUGUGGAAGGACCGGGUGUUGAGUCU [whbob_Ex_Tryp_B_w41] | 751
GAUUCCCAAGCGGCCGCCACUUAUAGUGAUGUUAUAGGGACUGCGGAUCAGGACAAUCAUACAUAAAGGACCGGGCUAUUCUGAC [theeternabot_exclusion_KL_Trp_B_1] | 255
CCUAGUGAUGUUAGGUCGUGCUCCUAUGAUACCAGCGUAGUCACUCGCCCUUGGCAGCAUUCCUUAUAAGGCGGUCGGGCGCGGU [theeternabot_sameState_KL_Theo_A_34] | 158
AGUGAUGUUUUUUUUAAGAGUGAUGUUUUUCGAGGACCGGUACGGCCGCCACUCGAGUGAUGAGUGCGGUGUUGUGAUGUUUAGU [ewmullin] | 475
UCCUAUACCCUUCCCGGACGCCGUGGAGAUACCAGCCACGUAGCGGGCCCUUGGCAGCUCGAGUGAUGUUCGAGAUCGUCAGGAU [Veteve] | 128

Same assay, conditions: Eterna round: R107; input ligand: tryptophan 2.4 mM

Sequence | apparent KD of K4 kissing-loop reporter [nM]
CGCCGUAAGGCGGUCGCUCCCACUCCGGAAGGAGCGCCCGCAAGGGCAGGUAGGUCGCCGGAGUGAUGUUCCGGUGGAGGGACCG [#2 Exclusion - Arginine A Attempt #7 (Inspired by Omei)] | 186
UUAGCUCUAUAGAGCAAGAGGUCAACUGAUACCAGAGGCUAUAGCCUCCCUUGGCAGCGGAACGAGUGAUGUUCGAGACCUCAUU [AK6 SS Theophylline A] | 1440
AUAAAUUUGUAGUGAUGUUGCAAGUUAGUCAAGGAUAUCAGGAAACUGAGAAGGUGAUAUCUCCUUUACUUGCAACUAGGAGGAG [KL-SSFMN-A11] | 85.7
GUGCGGUGGAGGUUACCGCUACUCUGAGAAGGAGCGCAGAUGACUGCAGGUAGGUCGCUUAGAGCUUGCAGUGAUGUUGCAAGUU [Anquatbiat] | 177
GGAGGUUGGUGCGAUACCAGACCUGCAGUGAUGUUGCGCCAAAGUGAGUGAUGUUCACCGGUCCCUUGGCAGCGCGUCCCUUUAG [Same State Theophylline B GF 15] | 860
CGGUUAUAGCAGGAUACCAGUACCCAUUAUGUACGUUUAUAGUAGAGUGAUGUUCUAAAGUACCCUUGGCAGCUUCCCGUGACCC [#23 K4 Theophylline B Exclusion] | 127
UUAGGAGUGGGAGGAUAUCCUAAUGUGGGUGAUGUUAGCGAUGUUGAAAGUGUAGUGAUGUUGUGCGGAGAAGGUCCAGUGUUGA [BDazzled - #12 - Exc. FMN B] | 168
GGGAGAAGUGGUGUUGAUUAAGAAGCGGAAGGAGCGCCGAAGAAGGCAGGUAGGUCGCCGAAAUAUAGUGAUGUUAUAUAAAGGG [ExArg.B] | 152
GGGUCUGUCGGAAGGAGCGCACUAUGGAGUGAUGUUCCAUGACCGCACAGCUUGCGGUCAGUGCAGGUAGGUCGCCGAUAGCUUU [Usquso] | 164
AUUUGUUACCUUAUAGGAGUGAUGUUCUUGCGAGGACCGGUACGGCCGCCACUCGCGCUGGCGCCUAGCCUCGGACCGUUAAUUC [theeternabot_exclusion_KL_Trp_A_25] | 431
CCUUUCAGUUACGAUACCAGUCUAAUAUAUUUGAUCAAUACCCUCGCCGAGUGAUGUUCGGACCCUUGGCAGCGUCUGGGACAGG [gbbymullin] | 337
CGUGCCCAGCCGGAUACCAGUGACCCGCUGGGAACCGCGGGCCCAGAGUGAUGUUCGGGACACCCUUGGCAGCCGCCUGGGCGGG [#2 Same State - Theophylline B Attempt #15 (HarryS)] | 453
UGAGGAGAAUAUGAUACCAGCAGAGAGAGAGAGGAAGUAUAGUGAUGUUAUAUGAGAUAAUGCCCUUGGCAGCAUAAGAAGAAGG [#19 K4 Theophylline B Same State] | 145
UUUAUUAAGACGGCCGCCACUGAUUCAUAGUGAUGUUAUGAUAUAAUUUUAGUGAUAUGCAUUAGCAGGACCGGGUCAAUUAUUA [JR_ExcTryptoB_Sub017] | 173
AAAAUAAAUAGCAGUCACGGAGUGAUGUUCCGAGGACCGGUACGGCCGCCACUCGACCAUCAUAAGAUGGAAUGGCGAGACUGCA [#SwitchBubble 21 #K4Early] | 354
AGUACAGACACGGCCGCCACUCAGAAGAAGAUAGUAGUGAUGUUACUGAUGAUGAGAAUAAUAAAGAGGACCGGGUGUUGUGCAA [#09 K4 Tryptophan B Same State] | 71.5

Sequence | apparent KD of K4 kissing-loop reporter [nM]
CAUACGAAGCAGUGAUGUUGCUUAUGAGAAGGAGCGCACGAAAGUGCAGGUAGGUCGCUCAGCCAUGUGGACGAAAACGUCCACA [whbob_SS_Arginine_A_sa112] | 269
UUCUGCAUCUCGGCCGCCACUCACUAGUGAUGUUAGUAAGGAGCGACUAGACAUGUCCCGUUAUUGAGGACCGGGAGAGGCUCUU [#13 K4 Tryptophan B Exclusion] | 140
UGCAUCAGUGCCUUUGAUCUAUUCCUGGAUACCAGAUCCUACUUGAUCCCUUGGCAGCCAUACGGGAGUGAUGUUCCAUGUAUCC [theeternabot_exclusion_KL_Theo_A_43] | 167
AUAAUAUUGCGAGGAUAUCCUUCCCACGUCGAAGUACCGUGCUUGAUGGAGUGAUGUUCGAUCAGAGGAGAAGGCGCGGUGUUGU [Same State FMN B GF23] | 571
AACUCUCAGGCACCUGAGUGAUGUUCAGGCCGAGGACCGGUACGGCCGCCACUCGGGCCUGAGAGAGGUUAUCAAAGAUAGCCAA [Omei KL Tryp A SS A v2] | 449
AUGCAUCAGACUUGAUACGGUGAAAUAGCCCGAGGACCGGUACGGCCGCCACUCGGUCCAGUGAUGUUGGAUAAUUAAUCUAGGU [theeternabot_sameState_KL_Trp_A_34] | 82.4
GGGUGGCAGGCGGCCGCCACUCUGAGCACCCACUGAGUGAUGUUCGUGGCGUAAGACUGUUCGUAGAGGACCGGGUUUGUUGUUC [Same State Tryptophan B GF 23] | 205
UAAUGCAUGACGGCCGCCACUAGUACUGGAGUGAUGUUGUGGUACGGCGGCAGUAUAGGGUGGACUAGGACCGGGUCAUGCAUAU [KL-XTryp-B11 #analogue] | 567
AUUUUUUUGUCAGGAUAUUAGUGUUGGUUUGGUUUGUUAGUGAUGUUGAUAUUUGUUUUAUGUAUUUAAGAAGGGAUUUAGCUGU [ppdemullin] | 278
UGUCAUUGGUCGGCCGCCACUUCGUGUGGAGUGAUGUUUUGUAGAUUGUGUUGAAAGGUAUGGUGAAGGACCGGGACCGAUGACU [FiskerMod 21 - Jieux - Same State - Tryptophan B] | 997
AGAUUCGACACGGCCGCCACUUCCGGUGGCUGGUGUCAUGGUGCGCGUGAGUGAUGUUUAUGUGGAAGGACCGGGUGUUGAGUCU [whbob_Ex_Tryp_B_w41] | 872
GAUUCCCAAGCGGCCGCCACUUAUAGUGAUGUUAUAGGGACUGCGGAUCAGGACAAUCAUACAUAAAGGACCGGGCUAUUCUGAC [theeternabot_exclusion_KL_Trp_B_1] | 261
CCUAGUGAUGUUAGGUCGUGCUCCUAUGAUACCAGCGUAGUCACUCGCCCUUGGCAGCAUUCCUUAUAAGGCGGUCGGGCGCGGU [theeternabot_sameState_KL_Theo_A_34] | 154
AGUGAUGUUUUUUUUAAGAGUGAUGUUUUUCGAGGACCGGUACGGCCGCCACUCGAGUGAUGAGUGCGGUGUUGUGAUGUUUAGU [ewmullin] | 467
UCCUAUACCCUUCCCGGACGCCGUGGAGAUACCAGCCACGUAGCGGGCCCUUGGCAGCUCGAGUGAUGUUCGAGAUCGUCAGGAU [Veteve] | 135
